{"source": "the supplement of paper PMC10567573", "parents": {"B1": {"name": "SLC2A12 (parent)", "chain": "TRIMIGLTLVFFVQITGQPNILFY"}, "B2": {"name": "PRKX (parent)", "chain": "KLLVVDRTRRLGNMKNGANDVKHH"}}, "data": [{"variants_of": "B1", "test": "protein stability index of a GFP-peptide fusion (GPS, HEK-293T) (PSI 1-6); higher = more stable", "conditions": "c terminus: a fixed tail appended", "values": [{"variant": "TRIMIGLTLVFFVQITDQPNILFY", "protein stability index": 3.49}, {"variant": "TRIMIGLTLVFFVQITGQPNILFT", "protein stability index": 3.56}, {"variant": "TRIMIGLTLVFFVQITGQPNILFW", "protein stability index": 2.69}, {"variant": "TRIMIGLFLVFFVQITGQPNILFY", "protein stability index": 2.26}, {"variant": "TRRMIGLTLVFFVQITGQPNILFY", "protein stability index": 2.86}, {"variant": "TRCMIGLTLVFFVQITGQPNILFY", "protein stability index": 2.21}, {"variant": "TRPMIGLTLVFFVQITGQPNILFY", "protein stability index": 2.49}, {"variant": "TRSMIGLTLVFFVQITGQPNILFY", "protein stability index": 3.14}, {"variant": "TRIMIGLTLVFFVQITGQPNILGY", "protein stability index": 3.83}, {"variant": "TRIMIGLTLVFFVQITGQPNILKY", "protein stability index": 3.29}, {"variant": "TRIMDGLTLVFFVQITGQPNILFY", "protein stability index": 3.91}, {"variant": "TRIMMGLTLVFFVQITGQPNILFY", "protein stability index": 1.77}, {"variant": "TRIMGGLTLVFFVQITGQPNILFY", "protein stability index": 3.23}, {"variant": "TRIMIGLTLVFFVQITGQPNINFY", "protein stability index": 3.01}, {"variant": "TRIMIGLTLVFFVQITGQPNIEFY", "protein stability index": 3.11}, {"variant": "TRIMIGLTLEFFVQITGQPNILFY", "protein stability index": 3.41}, {"variant": "TRIMIGLTLPFFVQITGQPNILFY", "protein stability index": 2.51}, {"variant": "TRIMIGLTLAFFVQITGQPNILFY", "protein stability index": 3.99}, {"variant": "TRIMIGLTLLFFVQITGQPNILFY", "protein stability index": 2.4}, {"variant": "TRIMIGSTLVFFVQITGQPNILFY", "protein stability index": 3.54}, {"variant": "TRIMIGATLVFFVQITGQPNILFY", "protein stability index": 3.65}, {"variant": "TRIMIGLTLVFFVQITGQPHILFY", "protein stability index": 3.83}, {"variant": "TGIMIGLTLVFFVQITGQPNILFY", "protein stability index": 3.53}, {"variant": "TRIMIGLTLVFFVQITGQHNILFY", "protein stability index": 3.72}, {"variant": "TRIMIGLTLVFFVQITGQPNMLFY", "protein stability index": 1.89}, {"variant": "TRIMIGLTLVFFVQITGQPNQLFY", "protein stability index": 2.1}, {"variant": "TRIMIGLTLVFFVQSTGQPNILFY", "protein stability index": 2.98}, {"variant": "TRIMIGLTLVFFVQIYGQPNILFY", "protein stability index": 3.48}, {"variant": "TRIMIGLTLVFFVQIWGQPNILFY", "protein stability index": 2.42}, {"variant": "TRIMIGLTLVFFVQILGQPNILFY", "protein stability index": 1.04}, {"variant": "TRIMIGLTLVFFVFITGQPNILFY", "protein stability index": 2.86}, {"variant": "TRIMIGLTLVFFVYITGQPNILFY", "protein stability index": 3.3}, {"variant": "TRIMIGLTLVFFVQITGTPNILFY", "protein stability index": 2.7}, {"variant": "TRIMIGLTLVFFVQITGRPNILFY", "protein stability index": 3.77}, {"variant": "TRIMIGLTLVFFVQITGMPNILFY", "protein stability index": 3.21}, {"variant": "TRIMIGLTLVFFKQITGQPNILFY", "protein stability index": 2.19}, {"variant": "TRIMIGLTLVFFHQITGQPNILFY", "protein stability index": 3.1}, {"variant": "TRIMIGLTLVFFWQITGQPNILFY", "protein stability index": 2.85}]}, {"variants_of": "B2", "test": "protein stability index of a GFP-peptide fusion (GPS, HEK-293T) (PSI 1-6); higher = more stable", "conditions": "c terminus: a fixed tail appended", "values": [{"variant": "KLNVVDRTRRLGNMKNGANDVKHH", "protein stability index": 3.62}, {"variant": "KLGVVDRTRRLGNMKNGANDVKHH", "protein stability index": 3.93}, {"variant": "KLYVVDRTRRLGNMKNGANDVKHH", "protein stability index": 2.69}, {"variant": "KLMVVDRTRRLGNMKNGANDVKHH", "protein stability index": 3.66}, {"variant": "KLVVVDRTRRLGNMKNGANDVKHH", "protein stability index": 2.86}, {"variant": "KLHVVDRTRRLGNMKNGANDVKHH", "protein stability index": 4}, {"variant": "KLRVVDRTRRLGNMKNGANDVKHH", "protein stability index": 3.87}, {"variant": "KLQVVDRTRRLGNMKNGANDVKHH", "protein stability index": 3.68}, {"variant": "KLEVVDRTRRLGNMKNGANDVKHH", "protein stability index": 4.33}, {"variant": "KLTVVDRTRRLGNMKNGANDVKHH", "protein stability index": 4.16}, {"variant": "KLKVVDRTRRLGNMKNGANDVKHH", "protein stability index": 3.55}, {"variant": "KLCVVDRTRRLGNMKNGANDVKHH", "protein stability index": 3.74}, {"variant": "KLFVVDRTRRLGNMKNGANDVKHH", "protein stability index": 2.72}, {"variant": "KLDVVDRTRRLGNMKNGANDVKHH", "protein stability index": 4.38}, {"variant": "KLIVVDRTRRLGNMKNGANDVKHH", "protein stability index": 3.31}, {"variant": "KLWVVDRTRRLGNMKNGANDVKHH", "protein stability index": 3.29}, {"variant": "KLPVVDRTRRLGNMKNGANDVKHH", "protein stability index": 3.72}, {"variant": "KLSVVDRTRRLGNMKNGANDVKHH", "protein stability index": 4.29}, {"variant": "KLAVVDRTRRLGNMKNGANDVKHH", "protein stability index": 3.92}, {"variant": "KLLVADRTRRLGNMKNGANDVKHH", "protein stability index": 3.74}, {"variant": "KLLVIDRTRRLGNMKNGANDVKHH", "protein stability index": 2.33}, {"variant": "KLLVLDRTRRLGNMKNGANDVKHH", "protein stability index": 2.6}, {"variant": "KLLVQDRTRRLGNMKNGANDVKHH", "protein stability index": 3.11}, {"variant": "KLLVCDRTRRLGNMKNGANDVKHH", "protein stability index": 3.72}, {"variant": "KLLVFDRTRRLGNMKNGANDVKHH", "protein stability index": 2.65}, {"variant": "KLLVMDRTRRLGNMKNGANDVKHH", "protein stability index": 2.95}, {"variant": "KLLVHDRTRRLGNMKNGANDVKHH", "protein stability index": 3.41}, {"variant": "KLLVNDRTRRLGNMKNGANDVKHH", "protein stability index": 3.3}, {"variant": "KLLVGDRTRRLGNMKNGANDVKHH", "protein stability index": 3.32}, {"variant": "KLLVTDRTRRLGNMKNGANDVKHH", "protein stability index": 3.67}, {"variant": "KLLVDDRTRRLGNMKNGANDVKHH", "protein stability index": 4.07}, {"variant": "KLLVYDRTRRLGNMKNGANDVKHH", "protein stability index": 2.61}, {"variant": "KLLVWDRTRRLGNMKNGANDVKHH", "protein stability index": 2.33}, {"variant": "KLLVRDRTRRLGNMKNGANDVKHH", "protein stability index": 3.31}, {"variant": "KLLVKDRTRRLGNMKNGANDVKHH", "protein stability index": 3.56}, {"variant": "KLLVSDRTRRLGNMKNGANDVKHH", "protein stability index": 3.62}, {"variant": "KLLVPDRTRRLGNMKNGANDVKHH", "protein stability index": 3.62}, {"variant": "KLLVEDRTRRLGNMKNGANDVKHH", "protein stability index": 4.08}, {"variant": "KLLVVDRLRRLGNMKNGANDVKHH", "protein stability index": 2.47}, {"variant": "KLLVVDRGRRLGNMKNGANDVKHH", "protein stability index": 2.55}, {"variant": "KLLVVDRERRLGNMKNGANDVKHH", "protein stability index": 3.38}, {"variant": "KLLVVDRQRRLGNMKNGANDVKHH", "protein stability index": 3.08}, {"variant": "KLLVVDRVRRLGNMKNGANDVKHH", "protein stability index": 3}, {"variant": "KLLVVDRNRRLGNMKNGANDVKHH", "protein stability index": 2.78}, {"variant": "KLLVVDRARRLGNMKNGANDVKHH", "protein stability index": 3.03}, {"variant": "KLLVVDRCRRLGNMKNGANDVKHH", "protein stability index": 2.98}, {"variant": "KLLVVDRPRRLGNMKNGANDVKHH", "protein stability index": 2.74}, {"variant": "KLLVVDRMRRLGNMKNGANDVKHH", "protein stability index": 2.54}, {"variant": "KLLVVDRFRRLGNMKNGANDVKHH", "protein stability index": 2.56}, {"variant": "KLLVVDRDRRLGNMKNGANDVKHH", "protein stability index": 3.46}, {"variant": "KLLVVDRRRRLGNMKNGANDVKHH", "protein stability index": 2.86}, {"variant": "KLLVVDRKRRLGNMKNGANDVKHH", "protein stability index": 2.88}, {"variant": "KLLVVDRHRRLGNMKNGANDVKHH", "protein stability index": 2.97}, {"variant": "KLLVVDRIRRLGNMKNGANDVKHH", "protein stability index": 1.97}, {"variant": "KLLVVDRSRRLGNMKNGANDVKHH", "protein stability index": 2.67}, {"variant": "KLLMVDRTRRLGNMKNGANDVKHH", "protein stability index": 2.57}]}]}
